# How the values were obtained:
# [1] = substrate: CP(=O)(O)CCC(=O)C(=O)O; test: purified protein, by the assay type; conditions: other: PPO 2-10 mM, NADPH 1-5 mM, pH 7.4, 35° C., double-reciprocal plot
# [2] = substrate: NC(=O)C1=CN([C@@H]2O[C@H](COP(=O)(O)OP(=O)(O)OC[C@H]3O[C@@H](n4cnc5c(N)ncnc54)[C@H](OP(=O)(O)O)[C@@H]3O)[C@@H](O)[C@H]2O)C=CC1; test: purified protein, by the assay type
# [3] = substrate: CP(=O)(O)CCC(=O)C(=O)O; test: Kinetic parameters of purified mutant PPTGDH-F188P; assay type: biochemical, Pseudomonas moorei; conditions: other: PPO 2-10 mM, NADPH 1-5 mM, pH 7.4, 35° C., double-reciprocal plot
# Experimental: (§1) 1. […] The mutant proteins were purified by Ni-NTA column(1.6×10 cm, Bio-Rad, the USA), and the specific operations were carried out as follows: (1)equilibrate a Ni-NTA column with 5 column volumes of a binding buffer(pH 8.0, 50 mM sodium phosphate buffer containing 0.3 M NaCl) until the baseline is steady; (2)load the sample with a flow rate of 1 mL/min with the amount of the loading sample of 25-40 mg/mL, thereby attaching the target protein to the Ni-NTA column; (3)wash the column with 6 column volumes of buffer A (pH 8.0, 50 mM sodium phosphate buffer containing 0.3 M NaCl and 30 mM imidazole) at a flow rate of 1 mL/min until the baseline is steady; (4)wash the column with buffer B (pH 8.0, 50 mM sodium phosphate buffer containing 0.3 M NaCl and 500 mM imidazole) at a flow rate of 1 mL/min, collect the target protein and dialyze overnight in a pH 7.5, 20 mM phosphate buffer, thereby obtaining the pure glufosinate-ammonium dehydrogenase; and (5)wash the Ni-NTA column with 5 column volumes of a binding buffer(pH 8.0, 50 mM sodium phosphate buffer containing 0.3 M NaCl) until the baseline is steady, and store the Ni-NTA column in 5 column volumes of ultrapure water containing 20% ethanol.
# (§2) According to sequential mechanism in glufosinate-ammonium dehydrogenase's catalytic reaction, vmax, Km^A, Km^B can be calculated by a double-reciprocal plot, the results were shown in Table 4.
# [4] = substrate: NC(=O)C1=CN([C@@H]2O[C@H](COP(=O)(O)OP(=O)(O)OC[C@H]3O[C@@H](n4cnc5c(N)ncnc54)[C@H](OP(=O)(O)O)[C@@H]3O)[C@@H](O)[C@H]2O)C=CC1; test: Kinetic parameters of purified mutant PPTGDH-F188P; assay type: biochemical, Pseudomonas moorei; conditions: other: PPO 2-10 mM, NADPH 1-5 mM, pH 7.4, 35° C., double-reciprocal plot
# Experimental: as §1, §2
# [5] = substrate: CP(=O)(O)CCC(=O)C(=O)O; test: Kinetic parameters of purified mutant PPTGDH-L107R-F188P; assay type: biochemical, Pseudomonas moorei; conditions: other: PPO 2-10 mM, NADPH 1-5 mM, pH 7.4, 35° C., double-reciprocal plot
# Experimental: as §1, §2
# [6] = substrate: NC(=O)C1=CN([C@@H]2O[C@H](COP(=O)(O)OP(=O)(O)OC[C@H]3O[C@@H](n4cnc5c(N)ncnc54)[C@H](OP(=O)(O)O)[C@@H]3O)[C@@H](O)[C@H]2O)C=CC1; test: as above; assay type: biochemical, Pseudomonas moorei; conditions: other: PPO 2-10 mM, NADPH 1-5 mM, pH 7.4, 35° C., double-reciprocal plot
# Experimental: as §1, §2
# [7] = substrate: CP(=O)(O)CCC(=O)C(=O)O; test: Kinetic parameters of purified mutant PPTGDH-L107R; assay type: biochemical, Pseudomonas moorei; conditions: other: PPO 2-10 mM, NADPH 1-5 mM, pH 7.4, 35° C., double-reciprocal plot
# Experimental: as §1, §2
# [8] = substrate: NC(=O)C1=CN([C@@H]2O[C@H](COP(=O)(O)OP(=O)(O)OC[C@H]3O[C@@H](n4cnc5c(N)ncnc54)[C@H](OP(=O)(O)O)[C@@H]3O)[C@@H](O)[C@H]2O)C=CC1; test: Kinetic parameters of purified mutant PPTGDH-L107R; assay type: biochemical, Pseudomonas moorei; conditions: other: PPO 2-10 mM, NADPH 1-5 mM, pH 7.4, 35° C., double-reciprocal plot
# Experimental: as §1, §2
# [9] = substrate: CP(=O)(O)CCC(=O)C(=O)O; test: Kinetic parameters of purified mutant PPTGDH-F357G; assay type: biochemical, Pseudomonas moorei; conditions: other: PPO 2-10 mM, NADPH 1-5 mM, pH 7.4, 35° C., double-reciprocal plot
# Experimental: as §1, §2
# [10] = substrate: NC(=O)C1=CN([C@@H]2O[C@H](COP(=O)(O)OP(=O)(O)OC[C@H]3O[C@@H](n4cnc5c(N)ncnc54)[C@H](OP(=O)(O)O)[C@@H]3O)[C@@H](O)[C@H]2O)C=CC1; test: Kinetic parameters of purified mutant PPTGDH-F357G; assay type: biochemical, Pseudomonas moorei; conditions: other: PPO 2-10 mM, NADPH 1-5 mM, pH 7.4, 35° C., double-reciprocal plot
# Experimental: as §1, §2
# [11] = substrate: CP(=O)(O)CCC(=O)C(=O)O; test: Kinetic parameters of purified mutant PPTGDH-L107R-F188P-G239K; assay type: biochemical, Pseudomonas moorei; conditions: other: PPO 2-10 mM, NADPH 1-5 mM, pH 7.4, 35° C., double-reciprocal plot
# Experimental: as §1, §2
# [12] = substrate: NC(=O)C1=CN([C@@H]2O[C@H](COP(=O)(O)OP(=O)(O)OC[C@H]3O[C@@H](n4cnc5c(N)ncnc54)[C@H](OP(=O)(O)O)[C@@H]3O)[C@@H](O)[C@H]2O)C=CC1; test: as above; assay type: biochemical, Pseudomonas moorei; conditions: other: PPO 2-10 mM, NADPH 1-5 mM, pH 7.4, 35° C., double-reciprocal plot
# Experimental: as §1, §2
# [13] = other: PPO 2-10 mM, NADPH 1-5 mM, pH 7.4, 35° C., double-reciprocal plot
protein,measurement,setting,value
"Pseudomonas moorei glufosinate-ammonium dehydrogenase E3 (PPTGDH, PPTGDHE3, WP_090325311.1), wild type, SEQ ID NO: 6 (Pseudomonas moorei) (protein) MIESVESFLARLKKRDPDQPEFHQAVEEVLRSLWPFLEANPRYLTSGILERICEPERAIVFRVSWVDDQGKVQVNRGFRIQMNSAIGPYKGGLRFHPSVNLGVLKFLAFEQTFKNSLTSLPMGGGKGGSDFDPKGKSDAEVMRFCQAFMSELYRHIGADVDVPAGDIGVGAREIGFLFGQYKRLSNQFTSVLTGKGPSYGGSLIRPEATGFGCVYFAEEMLKRRGETVEGKRVAISGSGNVAQYAARKVMDLGGKVISLSDSEGTLYCESGLTEAQWQAVLELKNVQRGRISELAGRFGLEFLAGQRPWGLSCDIALPCATQNELDAEAARALLRNGCTCVAEGANMPTTLEAVDLFIEAGILFAPGKASNAGGVAVSGLEMSQNAMRLLWTGGEVDSKLHAIMQSIHHACVHYGEENGQVNYVKGANIAGFVKVADAMLAQGVV",Km,[1],3.12 mM
same,kcat,[1],47.51 ± 2.05 s⁻¹
same,kcat/Km,[1],15.22 s⁻¹ mM⁻¹
same,Km,[2]; [13],0.12 mM
same,kcat/Km,"[2]; other: pH 7.4, 35° C.",395.91 s⁻¹ mM⁻¹
Pseudomonas moorei glufosinate-ammonium dehydrogenase E3 (SEQ ID NO: 6) variant PPTGDH-F188P (Pseudomonas moorei; F188P) (protein) MIESVESFLARLKKRDPDQPEFHQAVEEVLRSLWPFLEANPRYLTSGILERICEPERAIVFRVSWVDDQGKVQVNRGFRIQMNSAIGPYKGGLRFHPSVNLGVLKFLAFEQTFKNSLTSLPMGGGKGGSDFDPKGKSDAEVMRFCQAFMSELYRHIGADVDVPAGDIGVGAREIGFLFGQYKRLSNQPTSVLTGKGPSYGGSLIRPEATGFGCVYFAEEMLKRRGETVEGKRVAISGSGNVAQYAARKVMDLGGKVISLSDSEGTLYCESGLTEAQWQAVLELKNVQRGRISELAGRFGLEFLAGQRPWGLSCDIALPCATQNELDAEAARALLRNGCTCVAEGANMPTTLEAVDLFIEAGILFAPGKASNAGGVAVSGLEMSQNAMRLLWTGGEVDSKLHAIMQSIHHACVHYGEENGQVNYVKGANIAGFVKVADAMLAQGVV,Km,[3],4.16 mM
same,kcat,[3],33.50 ± 1.51 s⁻¹
same,kcat/Km,[3],8.05 s⁻¹ mM⁻¹
same,Km,[4],0.14 mM
same,kcat/Km,[4],239.29 s⁻¹ mM⁻¹
Pseudomonas moorei glufosinate-ammonium dehydrogenase E3 (SEQ ID NO: 6) variant PPTGDH-L107R-F188P (Pseudomonas moorei; F188P/L107R) (protein) MIESVESFLARLKKRDPDQPEFHQAVEEVLRSLWPFLEANPRYLTSGILERICEPERAIVFRVSWVDDQGKVQVNRGFRIQMNSAIGPYKGGLRFHPSVNLGVLKFRAFEQTFKNSLTSLPMGGGKGGSDFDPKGKSDAEVMRFCQAFMSELYRHIGADVDVPAGDIGVGAREIGFLFGQYKRLSNQPTSVLTGKGPSYGGSLIRPEATGFGCVYFAEEMLKRRGETVEGKRVAISGSGNVAQYAARKVMDLGGKVISLSDSEGTLYCESGLTEAQWQAVLELKNVQRGRISELAGRFGLEFLAGQRPWGLSCDIALPCATQNELDAEAARALLRNGCTCVAEGANMPTTLEAVDLFIEAGILFAPGKASNAGGVAVSGLEMSQNAMRLLWTGGEVDSKLHAIMQSIHHACVHYGEENGQVNYVKGANIAGFVKVADAMLAQGVV,Km,[5],3.22 mM
same,kcat,[5],67.10 ± 2.81 s⁻¹
same,kcat/Km,[5],20.84 s⁻¹ mM⁻¹
same,Km,[6],0.112 mM
same,kcat/Km,[6],599.11 s⁻¹ mM⁻¹
Pseudomonas moorei glufosinate-ammonium dehydrogenase E3 (SEQ ID NO: 6) variant PPTGDH-L107R (Pseudomonas moorei; L107R) (protein) MIESVESFLARLKKRDPDQPEFHQAVEEVLRSLWPFLEANPRYLTSGILERICEPERAIVFRVSWVDDQGKVQVNRGFRIQMNSAIGPYKGGLRFHPSVNLGVLKFRAFEQTFKNSLTSLPMGGGKGGSDFDPKGKSDAEVMRFCQAFMSELYRHIGADVDVPAGDIGVGAREIGFLFGQYKRLSNQFTSVLTGKGPSYGGSLIRPEATGFGCVYFAEEMLKRRGETVEGKRVAISGSGNVAQYAARKVMDLGGKVISLSDSEGTLYCESGLTEAQWQAVLELKNVQRGRISELAGRFGLEFLAGQRPWGLSCDIALPCATQNELDAEAARALLRNGCTCVAEGANMPTTLEAVDLFIEAGILFAPGKASNAGGVAVSGLEMSQNAMRLLWTGGEVDSKLHAIMQSIHHACVHYGEENGQVNYVKGANIAGFVKVADAMLAQGVV,Km,[7],2.43 mM
same,kcat,[7],42.02 ± 2.47 s⁻¹
same,kcat/Km,[7],17.29 s⁻¹ mM⁻¹
same,Km,[8],0.102 mM
same,kcat/Km,[8],411.96 s⁻¹ mM⁻¹
"Pseudomonas moorei glufosinate-ammonium dehydrogenase E3 (SEQ ID NO: 6) variant PPTGDH-L107R-F188P-G239K-F357G, SEQ ID NO: 9 (Pseudomonas moorei; … (protein) MIESVESFLARLKKRDPDQPEFHQAVEEVLRSLWPFLEANPRYLTSGILERICEPERAIVFRVSWVDDQGKVQVNRGFRIQMNSAIGPYKGGLRFHPSVNLGVLKFRAFEQTFKNSLTSLPMGGGKGGSDFDPKGKSDAEVMRFCQAFMSELYRHIGADVDVPAGDIGVGAREIGFLFGQYKRLSNQPTSVLTGKGPSYGGSLIRPEATGFGCVYFAEEMLKRRGETVEGKRVAISGSKNVAQYAARKVMDLGGKVISLSDSEGTLYCESGLTEAQWQAVLELKNVQRGRISELAGRFGLEFLAGQRPWGLSCDIALPCATQNELDAEAARALLRNGCTCVAEGANMPTTLEAVDLGIEAGILFAPGKASNAGGVAVSGLEMSQNAMRLLWTGGEVDSKLHAIMQSIHHACVHYGEENGQVNYVKGANIAGFVKVADAMLAQGVV",Km,[1],2.11 mM
same,kcat,[1],712.6 ± 3.21 s⁻¹
same,kcat/Km,[1],337.73 s⁻¹ mM⁻¹
same,Km,[2]; [13],0.052 mM
same,kcat/Km,[2]; [13],13703 s⁻¹ mM⁻¹
Pseudomonas moorei glufosinate-ammonium dehydrogenase E3 (SEQ ID NO: 6) variant PPTGDH-F357G (Pseudomonas moorei; F357G) (protein) MIESVESFLARLKKRDPDQPEFHQAVEEVLRSLWPFLEANPRYLTSGILERICEPERAIVFRVSWVDDQGKVQVNRGFRIQMNSAIGPYKGGLRFHPSVNLGVLKFLAFEQTFKNSLTSLPMGGGKGGSDFDPKGKSDAEVMRFCQAFMSELYRHIGADVDVPAGDIGVGAREIGFLFGQYKRLSNQFTSVLTGKGPSYGGSLIRPEATGFGCVYFAEEMLKRRGETVEGKRVAISGSGNVAQYAARKVMDLGGKVISLSDSEGTLYCESGLTEAQWQAVLELKNVQRGRISELAGRFGLEFLAGQRPWGLSCDIALPCATQNELDAEAARALLRNGCTCVAEGANMPTTLEAVDLGIEAGILFAPGKASNAGGVAVSGLEMSQNAMRLLWTGGEVDSKLHAIMQSIHHACVHYGEENGQVNYVKGANIAGFVKVADAMLAQGVV,Km,[9],3.35 mM
same,kcat,[9],56.31 ± 1.80 s⁻¹
same,kcat/Km,[9],16.808 s⁻¹ mM⁻¹
same,Km,[10],0.105 mM
same,kcat/Km,[10],536 s⁻¹ mM⁻¹
Pseudomonas moorei glufosinate-ammonium dehydrogenase E3 (SEQ ID NO: 6) variant PPTGDH-L107R-F188P-G239K (Pseudomonas moorei; F188P/G239K/L107R) (protein) MIESVESFLARLKKRDPDQPEFHQAVEEVLRSLWPFLEANPRYLTSGILERICEPERAIVFRVSWVDDQGKVQVNRGFRIQMNSAIGPYKGGLRFHPSVNLGVLKFRAFEQTFKNSLTSLPMGGGKGGSDFDPKGKSDAEVMRFCQAFMSELYRHIGADVDVPAGDIGVGAREIGFLFGQYKRLSNQPTSVLTGKGPSYGGSLIRPEATGFGCVYFAEEMLKRRGETVEGKRVAISGSKNVAQYAARKVMDLGGKVISLSDSEGTLYCESGLTEAQWQAVLELKNVQRGRISELAGRFGLEFLAGQRPWGLSCDIALPCATQNELDAEAARALLRNGCTCVAEGANMPTTLEAVDLFIEAGILFAPGKASNAGGVAVSGLEMSQNAMRLLWTGGEVDSKLHAIMQSIHHACVHYGEENGQVNYVKGANIAGFVKVADAMLAQGVV,Km,[11],2.09 mM
same,kcat,[11],607.5 ± 4.02 s⁻¹
same,kcat/Km,[11],290.67 s⁻¹ mM⁻¹
same,Km,[12],0.045 mM
same,kcat/Km,[12],13500 s⁻¹ mM⁻¹
